Assay results as given in US20180354988A1 (University of California, published 2018).
Positions count from the first letter of the chain named. Numbers in names are those of the source.

Experiments:
[1] = target: the molecule itself; assay: self-assembly, TEM
[2] = target: the molecule itself; assay: disulfide-mediated self-assembly
[3] = target: the molecule itself; assay: oxidative self-assembly conditions; TEM

B1: ^C98RhuA-HisTag (enzyme)
chain: MQNITQSWFVQGMIKATTDAWLKGWDERNGGNLTLRLDDADIAPYHDNFHQQPRYIPLSQPMPLLANTPFIVTGSGKFFRNVQLDPAANLGIVKVDSCGAGYHILWGLTNEAVPTSELPAHFLSHSERIKATNGKDRVIMHCHATNLIALTYVLENDTAVFTRQLWEGSTECLVVFPDGVGILPWMVPGTDAIGQATAQEMQKHSLVLWPFHGVFGSGPTLDETFGLIDTAEKSAQVLVKVYSMGGMKQTISREELIALGKRFGVTPLASALALGSGSGHHHHHH
notes: also called RhuA-C98-HisTag; C98-His tagged RhuA mutant
B1: binds [1].

B2: ^C98RhuA-Pd4 (enzyme)
chain: MQNITQSWFVQGMIKATTDAWLKGWDERNGGNLTLRLDDADIAPYHDNFHQQPRYIPLSQPMPLLANTPFIVTGSGKFFRNVQLDPAANLGIVKVDSCGAGYHILWGLTNEAVPTSELPAHFLSHSERIKATNGKDRVIMHCHATNLIALTYVLENDTAVFTRQLWEGSTECLVVFPDGVGILPWMVPGTDAIGQATAQEMQKHSLVLWPFHGVFGSGPTLDETFGLIDTAEKSAQVLVKVYSMGGMKQTISREELIALGKRFGVTPLASALALGSGSGTSNAVHPTLRHL
notes: also called C98-RhuA-Pd4 mutant
B2: binds [1].

B3: ^C98RhuA (L-rhamnulose-1-phosphate aldolase variant D98C/C126S/E192A) (enzyme)
chain: MQNITQSWFVQGMIKATTDAWLKGWDERNGGNLTLRLDDADIAPYHDNFHQQPRYIPLSQPMPLLANTPFIVTGSGKFFRNVQLDPAANLGIVKVDSCGAGYHILWGLTNEAVPTSELPAHFLSHSERIKATNGKDRVIMHCHATNLIALTYVLENDTAVFTRQLWEGSTECLVVFPDGVGILPWMVPGTDAIGQATAQEMQKHSLVLWPFHGVFGSGPTLDETFGLIDTAEKSAQVLVKVYSMGGMKQTISREELIALGKRFGVTPLASALAL
notes: C4 symmetric homotetramer (4 x 274 residues); Tetramers link to each other through single C98-C98 disulfide bonds at the corners; also called RhuA-C98; Rhu-C98
B3: binds [2].

B4: ^C266RhuA (enzyme)
chain: B3 chain with C98D, T266C
notes: Surface cysteine lies on the sides of the tetramer; also called RhuA-C266
B4: binds [3].

B5: ^C133RhuA (enzyme)
chain: B3 chain with C98D, N133C
notes: Surface cysteine lies on the sides of the tetramer; also called RhuA-C133
B5: binds [3].

B6: ^C98RhuA-ACP (enzyme)
chain: MQNITQSWFVQGMIKATTDAWLKGWDERNGGNLTLRLDDADIAPYHDNFHQQPRYIPLSQPMPLLANTPFIVTGSGKFFRNVQLDPAANLGIVKVDSCGAGYHILWGLTNEAVPTSELPAHFLSHSERIKATNGKDRVIMHCHATNLIALTYVLENDTAVFTRQLWEGSTECLVVFPDGVGILPWMVPGTDAIGQATAQEMQKHSLVLWPFHGVFGSGPTLDETFGLIDTAEKSAQVLVKVYSMGGMKQTISREELIALGKRFGVTPLASALALGSGSGSTIEERVKKIIGEQLGVKQEEVTNNASFVEDLGADSLDTVELVMALEEEFDTEIPDEEAEKITTVQAAIDYINGHQA
B6: binds [1].
